# Key:
# Experiment in all cases: filter binding
# [1] = system: Gadd45a G39A (Xenopus tropicalis); conditions: loss of discrimination between vector and total RNA in competition; 10 mM Tris-HCl pH 7.4, 10 mM KCl, 1 mM MgCl2; 2.5 or 1.3 uM protein, ~2 ng 32P-MCS RNA, 20 min; temperature not given; nitrocellulose filter
# [2] = system: Gadd45a K45A (Xenopus tropicalis); conditions: loss of discrimination between vector and total RNA in competition; 10 mM Tris-HCl pH 7.4, 10 mM KCl, 1 mM MgCl2; 2.5 or 1.3 uM protein, ~2 ng 32P-MCS RNA, 20 min; temperature not given; nitrocellulose filter
# [3] = system: Gadd45a R34G (Xenopus tropicalis); conditions: 10 mM Tris-HCl pH 7.4, 10 mM KCl, 1 mM MgCl2; 2.5 or 1.3 uM protein, ~2 ng 32P-MCS RNA, 20 min; temperature not given; nitrocellulose filter
# [4] = system: Gadd45a V49R (Xenopus tropicalis); conditions: 10 mM Tris-HCl pH 7.4, 10 mM KCl, 1 mM MgCl2; 2.5 or 1.3 uM protein, ~2 ng 32P-MCS RNA, 20 min; temperature not given; nitrocellulose filter
substance,measurement,setting,value
MCS RNA (multiple cloning site transcript),binding signal (fold of wild type binding (comparable)),[1],1
same,binding signal (fold of wild type binding (comparable)),[2],1
same,binding signal (fold of wild type binding (comparable)),[3],1
same,binding signal (fold of wild type binding),[4],3
